Test results as given in the supplement of paper PMC10724198.

The sequences below were run on Saccharomyces cerevisiae (assay: protein stability index of tFT-peptide fusion in wild type (PSI (0-1 scale)); higher = more stable (slower turnover)). Conditions: genetic background: wild type.
Method: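 MPS profiling in S. cerevisiae of two library types built from selected 12-aa C-degron peptides (IN1, IN2, LN1, LN3, VN2, R1-R5, W1-W3, Atg1 and Rpa12 C-termini): saturation mutagenesis libraries and C-terminal +1 capping libraries (13 aa). Each peptide is fused to the C-terminus of a sfGFP-mCherry timer, after a GGGS linker. Cells are FACS-sorted into 8 mCherry/sfGFP bins and sequenced. PSI runs from 0 (unstable) to 1 (stable), measured once in wild type and in the das1Δ or doa10Δ background.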
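Note: PSI derived as read-weighted mean over the 8 sorting bins, only variants exceeding 10 total reads kept, mCherry placed adjacent to the peptide and sfGFP distal.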

Compared with ARWRVVLWRGAS, CHSCGYKFRTNN is lower in protein stability index: 0.517 for the first, 0.212 for the second.

Compared with CNSCGYKFRTNN, CQSCGYKFRTNN is higher in protein stability index: 0.193 for the first, 0.248 for the second.

Compared with CRWRVGLWRGAS, CSMRWTFRYWVN is lower in protein stability index: 0.276 for the first, 0.0623 for the second.

Compared with CTLCGYKFRTNN, CTSCGEKFRTNN is higher in protein stability index: 0.278 for the first, 0.523 for the second.

Going from CTSCGIKFRTNN to CTSCGPKFRTNN, the protein stability index rises from 0.376 to 0.598.

First: CTSCGYKDRTNN
Second: CTSCGYKFGTNN
The protein stability index of the first is lower: 0.634 for the first, 0.688 for the second.

Compared with CTSCGYKFRPNN, CTSCGYKFRTLN is lower in protein stability index: 0.727 for the first, 0.132 for the second.

Going from CTSCGYKFRTNL to CTSCGYKFRTNNC, the protein stability index rises from 0.652 to 0.708.

First: CTSCGYKFRTNNT
Second: CTSCGYKFVTNN
The protein stability index of the first is higher: 0.692 for the first, 0.495 for the second.

Compared with CTSCGYKTRTNN, CTSCGYKVRTNN is lower in protein stability index: 0.632 for the first, 0.388 for the second.

First: CTSCGYLFRTNN
Second: CTSCGYYFRTNN
The protein stability index of the first is higher: 0.348 for the first, 0.283 for the second.

First: CTSCLYKFRTNN
Second: CTSGGYKFRTNN
The protein stability index of the first is lower: 0.185 for the first, 0.551 for the second.

First: CTSNGYKFRTNN
Second: CTSWGYKFRTNN
The protein stability index of the first is higher: 0.381 for the first, 0.137 for the second.

First: CTWCGYKFRTNN
Second: DKILRQKMNHQN
The protein stability index of the first is higher: 0.224 for the first, 0.121 for the second.

Going from ERGAVGGWRLVG to ESMRWTFRYWVN, the protein stability index falls from 0.168 to 0.0849.

Going from FSGRWTFRYWVN to FSMRGTFRYWVN, the protein stability index rises from 0.0867 to 0.106.

Going from FSMRHTFRYWVN to FSMRQTFRYWVN, the protein stability index rises from 0.0782 to 0.0909.

Going from FSMRWKFRYWVN to FSMRWTARYWVN, the protein stability index rises from 0.0643 to 0.0802.

First: FSMRWTFRKWVN
Second: FSMRWTFRYCVN
The protein stability index of the first is higher: 0.314 for the first, 0.088 for the second.

Compared with FSMRWTFRYMVN, FSMRWTFRYWLN is lower in protein stability index: 0.0804 for the first, 0.0521 for the second.

First: FSMRWTFRYWMN
Second: FSMRWTFRYWSN
The protein stability index of the first is lower: 0.07 for the first, 0.313 for the second.

First: FSMRWTFRYWVE
Second: FSMRWTFRYWVG
The protein stability index of the first is higher: 0.502 for the first, 0.422 for the second.

Going from FSMRWTFRYWVNC to FSMRWTFRYWVNI, the protein stability index rises from 0.114 to 0.134.

Going from FSMRWTFRYWVT to FSMRWTFRYWYN, the protein stability index falls from 0.225 to 0.149.

Compared with FSMRWTFYYWVN, FSMRWTWRYWVN is higher in protein stability index: 0.0564 for the first, 0.0598 for the second.

Going from FSPRWTFRYWVN to FSSRWTFRYWVN, the protein stability index rises from 0.075 to 0.1.

First: FVVYLSCVACIN
Second: FWMRWTFRYWVN
The protein stability index of the first is lower: 0.0218 for the first, 0.0402 for the second.

First: HSMRWTFRYWVN
Second: HVVYLSCVACIN
The protein stability index of the first is higher: 0.0543 for the first, 0.0139 for the second.

Going from IKILRQKMNHQN to KKEKKGQKQKIN, the protein stability index falls from 0.177 to 0.0774.

First: KKFKKGQKQKIN
Second: KKHKCGQKQKIN
The protein stability index of the first is higher: 0.129 for the first, 0.0807 for the second.

First: KKHKKAQKQKIN
Second: KKHKKCQKQKIN
The protein stability index of the first is higher: 0.06 for the first, 0.0395 for the second.

Compared with KKHKKGQKAKIN, KKHKKGQKGKIN is higher in protein stability index: 0.241 for the first, 0.563 for the second.

Going from KKHKKGQKKKIN to KKHKKGQKMKIN, the protein stability index falls from 0.523 to 0.105.

Compared with KKHKKGQKQIIN, KKHKKGQKQKIH is lower in protein stability index: 0.642 for the first, 0.114 for the second.

First: KKHKKGQKQKINN
Second: KKHKKGQKQKINP
The protein stability index of the first is lower: 0.231 for the first, 0.658 for the second.

KKHKKGQKQKINQ and KKHKKGQKQKINR are the same in protein stability index: 0.644 for the first, 0.644 for the second.

Compared with KKHKKGQKQKIP, KKHKKGQKQKQN is lower in protein stability index: 0.336 for the first, 0.264 for the second.

Going from KKHKKGQKTKIN to KKHKKGQYQKIN, the protein stability index falls from 0.435 to 0.0851.

First: KKHMKGQKQKIN
Second: KKHRKGQKQKIN
The protein stability index of the first is lower: 0.103 for the first, 0.109 for the second.

Compared with KKHTKGQKQKIN, KSLAASFWRVVG is lower in protein stability index: 0.129 for the first, 0.112 for the second.

Compared with LDVYLSCVACIN, LKALRQKMNHQN is higher in protein stability index: 0.134 for the first, 0.213 for the second.

First: LKFLRQKMNHQN
Second: LKHKKGQKQKIN
The protein stability index of the first is higher: 0.166 for the first, 0.094 for the second.

Going from LKICRQKMNHQN to LKIFRQKMNHQN, the protein stability index falls from 0.254 to 0.191.

First: LKIHRQKMNHQN
Second: LKIIRQKMNHQN
The protein stability index of the first is higher: 0.226 for the first, 0.204 for the second.

Going from LKILFQKMNHQN to LKILRAKMNHQN, the protein stability index falls from 0.267 to 0.223.

First: LKILRQCMNHQN
Second: LKILRQKCNHQN
The protein stability index of the first is lower: 0.288 for the first, 0.295 for the second.

Going from LKILRQKINHQN to LKILRQKMKHQN, the protein stability index rises from 0.23 to 0.568.

First: LKILRQKMLHQN
Second: LKILRQKMNAQN
The protein stability index of the first is higher: 0.227 for the first, 0.208 for the second.

Compared with LKILRQKMNHQN, LKILRQKMNHQNK is higher in protein stability index: 0.192 for the first, 0.656 for the second.

Going from LKILRQKMNHQNY to LKILRQKMNHQQ, the protein stability index falls from 0.595 to 0.193.

Compared with LKILRQKMNKQN, LKILRQKMNRQN is lower in protein stability index: 0.246 for the first, 0.21 for the second.

Compared with LKILRQKMNVQN, LKILRQSMNHQN is higher in protein stability index: 0.226 for the first, 0.238 for the second.

First: LKILRRKMNHQN
Second: LNVYLSCVACIN
The protein stability index of the first is higher: 0.216 for the first, 0.043 for the second.

First: LQILRQKMNHQN
Second: LTVYLSCVACIN
The protein stability index of the first is higher: 0.117 for the first, 0.0165 for the second.

Compared with LVVYHSCVACIN, LVVYLACVACIN is lower in protein stability index: 0.181 for the first, 0.0186 for the second.

Compared with LVVYLCCVACIN, LVVYLDCVACIN is higher in protein stability index: 0.0154 for the first, 0.0395 for the second.

Compared with LVVYLSCQACIN, LVVYLSCVAAIN is higher in protein stability index: 0.00888 for the first, 0.0144 for the second.

Going from LVVYLSCVACEN to LVVYLSCVACIE, the protein stability index falls from 0.132 to 0.0121.

Sequence LVVYLSCVACINF has a protein stability index of 0.024.
